Source: article PMC7051184, “C9orf72 arginine-rich dipeptide repeat proteins disrupt karyopherin-mediated nuclear import” (eLife, 2020)
Where no end group is shown, it is not given here.

What was measured:
[1] = target: T1, biotinylated WT importin β-Avitag (human, UniProt Q14974 1-876, biotin on the Avitag); assay: bead halo assay; biotinylated importin β or biotinylated BSA on neutravidin polystyrene beads; fluorescent prey (200 nM AF488-DPR, Rango) in binding buffer with assay buffer (EDTA, BSA, NaCl, Tween); room temperature, at least 30 min; confocal rim vs. background ratio; conditions: both partners purified
T1 construct: WT human importin β (KPNB1) in pRSET A with C-terminal Avitag; Called WT; Held on neutravidin beads by the biotin; also called biotinylated importin β; importin β-coated beads; source: E. coli BL21DE3, co-expressed with BirA biotin ligase, purified (Ni-NTA)

[2] = target: T2, 6His-S-Importin β(1-876), full-length WT human importin β (human, UniProt Q14974 1-876); assay: FRET or BRET; Rango FRET sensor in solution: 20 nM Rango-2/α1 (pK188) and 50 nM importin β (pKW485) in TBS pH 7.4, 0.01% Tween-20, with increasing concentrations of DPR 10-mers or ZZ-RanQ69L-GTP; ratio of acceptor (535 nm) to donor (480 nm) emission; non-linear fit with one binding site; conditions: both partners purified
T2 construct: human importin β (KPNB1), full length, residues 1-876, expressed from pET30a; Construct from Chi et al., 1997; also called KPNB1; WT importin β (pKW485)
T2 sequence (Q14974 whole entry, the tested form may be a part): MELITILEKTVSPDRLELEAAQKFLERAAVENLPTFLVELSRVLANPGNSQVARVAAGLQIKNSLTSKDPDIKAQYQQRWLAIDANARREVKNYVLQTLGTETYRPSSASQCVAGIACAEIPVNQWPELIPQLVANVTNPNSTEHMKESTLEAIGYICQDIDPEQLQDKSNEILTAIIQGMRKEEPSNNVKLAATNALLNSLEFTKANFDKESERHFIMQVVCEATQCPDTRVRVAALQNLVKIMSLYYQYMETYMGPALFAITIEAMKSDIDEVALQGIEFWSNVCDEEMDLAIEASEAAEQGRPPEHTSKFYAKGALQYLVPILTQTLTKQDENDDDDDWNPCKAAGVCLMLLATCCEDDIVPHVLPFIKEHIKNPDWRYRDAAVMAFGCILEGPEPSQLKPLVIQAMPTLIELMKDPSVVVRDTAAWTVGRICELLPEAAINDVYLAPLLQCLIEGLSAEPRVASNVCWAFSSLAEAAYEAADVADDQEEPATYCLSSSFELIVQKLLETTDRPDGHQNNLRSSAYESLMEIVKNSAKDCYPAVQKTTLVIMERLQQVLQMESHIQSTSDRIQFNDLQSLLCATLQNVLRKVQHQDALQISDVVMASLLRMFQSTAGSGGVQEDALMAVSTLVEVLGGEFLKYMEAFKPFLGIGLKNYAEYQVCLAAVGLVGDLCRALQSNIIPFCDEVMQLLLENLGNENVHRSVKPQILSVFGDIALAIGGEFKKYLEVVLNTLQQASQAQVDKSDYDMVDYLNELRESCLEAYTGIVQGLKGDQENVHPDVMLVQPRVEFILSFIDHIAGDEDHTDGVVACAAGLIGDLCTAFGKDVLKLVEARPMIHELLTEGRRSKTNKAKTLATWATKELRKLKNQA

T1 sequence (Q14974 whole entry): as the sequence (Q14974 whole entry, the tested form may be a part) above

B1: AF488-labeled PR10 (peptide)
peptide: PRPRPRPRPRPRPRPRPRPRKC(Alexa Fluor 488 C5‑maleimide)
notes: poly-PR, 10 repeats, plus C-terminal K and C; also called AF488-PR10; DPR-AF488; source: synthetic peptide (Genscript)
In the case of B1, the “halo intensity (rim vs. background) relative to control beads” value [1] is reported as ~2 fold.

B2: GR10, synthetic poly-glycine-arginine 10-mer dipeptide repeat protein with C-terminal lysine and cysteine (peptide)
peptide: GRGRGRGRGRGRGRGRGRGRKC
notes: C9orf72 repeat-associated non-AUG translation product poly-GR, 10 repeats, plus C-terminal K (solubility) and C (labelling); unlabelled form, used in the FRET, GFP-Trap, sedimentation and import assays; also called poly-GR; R-DPR; source: synthetic peptide (Genscript; 21st Century Biochemicals)
B2: binds [2].

B3: PR10, synthetic poly-proline-arginine 10-mer dipeptide repeat protein with C-terminal lysine and cysteine (peptide)
peptide: PRPRPRPRPRPRPRPRPRPRKC
notes: C9orf72 repeat-associated non-AUG translation product poly-PR, 10 repeats, plus C-terminal K and C; unlabelled form; also called R-DPR; source: synthetic peptide (Genscript; 21st Century Biochemicals)
B3: binds [2].

B4: AF488-labeled GR10 (peptide)
peptide: GRGRGRGRGRGRGRGRGRGRKC(Alexa Fluor 488 C5‑maleimide)
notes: poly-GR, 10 repeats, plus C-terminal K and C; also called AF488-GR10; DPR-AF488; source: synthetic peptide (Genscript)
With B4 the “halo intensity (rim vs. background) relative to control beads” value [1] was ~2 fold.
